From patent publication US6355481 come the findings set out here.

For the experiment, the target named is HAP1-A (Huntingtin Associated Protein 1-A) (UniProt P54256). Put plainly: cell-based or functional assay.
HAP1-A (Huntingtin Associated Protein 1-A), sequence (P54256 other isoform, or with tags, fused parts or gaps limits assumed): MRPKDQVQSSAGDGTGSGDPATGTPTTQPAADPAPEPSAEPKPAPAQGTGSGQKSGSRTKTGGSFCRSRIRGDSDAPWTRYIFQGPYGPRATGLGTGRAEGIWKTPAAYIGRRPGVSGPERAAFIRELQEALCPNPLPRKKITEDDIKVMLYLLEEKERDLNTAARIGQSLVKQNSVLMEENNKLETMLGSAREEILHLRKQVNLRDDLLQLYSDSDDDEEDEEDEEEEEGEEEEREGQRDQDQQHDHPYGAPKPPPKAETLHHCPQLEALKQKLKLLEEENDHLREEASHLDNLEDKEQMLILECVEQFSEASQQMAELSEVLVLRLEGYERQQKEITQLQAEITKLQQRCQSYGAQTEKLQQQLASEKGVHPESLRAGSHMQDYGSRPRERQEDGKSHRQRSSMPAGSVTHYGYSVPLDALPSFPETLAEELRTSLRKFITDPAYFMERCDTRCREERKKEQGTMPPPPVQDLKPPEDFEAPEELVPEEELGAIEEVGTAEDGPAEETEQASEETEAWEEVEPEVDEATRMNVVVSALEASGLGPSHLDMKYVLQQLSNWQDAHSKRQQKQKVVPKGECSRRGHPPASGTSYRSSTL

As to “N-terminal region of human huntingtin protein (amino acids 1-253) with 120 glutamines (HD-120Q) (from UniProt P42858 1-253)”, the percentage of HAP1-A and huntingtin double-transfected PC12 cells with elongated neurites turned out to be 7.5%. The figure for “N-terminal region of human huntingtin protein (amino acids 1-253) with 73 glutamines (HD-73Q) (from UniProt P42858 1-253)” is 15.2%.
